No end group written: not given here.
Target: T1, Kv1.3 (human potassium voltage-gated channel subfamily A member 3) (human, UniProt P22001 1-575)
T1 construct: whole, on cells
Test: immunofluorescence staining of Kv1.3 expressing HEK293F cells, flow cytometry

T1 sequence (P22001 whole entry): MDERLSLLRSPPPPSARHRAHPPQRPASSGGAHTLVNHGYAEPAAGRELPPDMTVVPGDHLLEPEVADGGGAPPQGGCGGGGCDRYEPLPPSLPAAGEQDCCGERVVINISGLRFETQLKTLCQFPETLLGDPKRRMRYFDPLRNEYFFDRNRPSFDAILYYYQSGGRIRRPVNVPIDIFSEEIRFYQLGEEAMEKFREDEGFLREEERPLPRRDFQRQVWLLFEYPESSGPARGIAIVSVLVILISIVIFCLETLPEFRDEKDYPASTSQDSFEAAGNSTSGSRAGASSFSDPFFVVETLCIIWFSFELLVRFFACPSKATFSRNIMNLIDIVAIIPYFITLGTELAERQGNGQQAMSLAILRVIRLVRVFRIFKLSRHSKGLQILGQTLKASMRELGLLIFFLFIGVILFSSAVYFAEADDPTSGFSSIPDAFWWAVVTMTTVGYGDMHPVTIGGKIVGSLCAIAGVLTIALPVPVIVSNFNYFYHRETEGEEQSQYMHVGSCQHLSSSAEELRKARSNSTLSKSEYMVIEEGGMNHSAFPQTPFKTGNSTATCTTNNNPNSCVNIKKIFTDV

B1: CllTx1-Fc fusion protein (Fc fusion)
chain: ITINVKCTSPQQCLRPCKDRFGQHAGGKCINGKCKCYP
modifications: ends and bridges not checked; also: fused to human IgG1 Fc fragment, limits and linker not given here
notes: mature; also called recombinant CllTx1-Fc fusion protein; not shown: human IgG1 Fc fragment
  binding result: binds

Reference: patent US20200190151A1 (Scripps Research, published 2020)
